Assay results from publication PMC5031558.

Target: HOIP PUB domain (aa 1–184) (UniProt Q96EP0)
Assay: fluorescence polarisation; FITC-Ahx-labeled PIM peptides with purified PUB domains; triplicate

HOIP PUB domain (aa 1–184), sequence (Q96EP0 1-184): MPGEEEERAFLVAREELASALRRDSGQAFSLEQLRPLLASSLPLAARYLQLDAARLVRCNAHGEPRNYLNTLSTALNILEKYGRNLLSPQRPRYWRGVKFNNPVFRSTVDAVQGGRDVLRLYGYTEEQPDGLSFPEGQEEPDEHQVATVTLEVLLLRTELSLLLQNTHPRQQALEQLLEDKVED

Substance | Kd [nM]
FITC-Ahx-labeled SPATA2 PIM peptide | 300
FITC-Ahx-labeled OTULIN PIM peptide | 300
